In patent publication US20130315910A1 (Xencor, published 2013):

T1: cynoFcγRIIb (Macaca fascicularis, UniProt A0A140HDP4)
T1 construct: extracellular region, C-terminal His- and GST-tag; also called cynomolgus monkey FcγRIIb
T1 sequence (receptor extracellular region): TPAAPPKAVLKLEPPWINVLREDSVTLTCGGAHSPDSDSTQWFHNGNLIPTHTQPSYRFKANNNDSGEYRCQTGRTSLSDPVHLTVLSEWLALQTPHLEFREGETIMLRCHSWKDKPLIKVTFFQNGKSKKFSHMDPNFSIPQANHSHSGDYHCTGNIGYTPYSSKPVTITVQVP

T2: mFcγRIIb (Mus musculus, UniProt P08101)
T2 construct: extracellular region, C-terminal His- and GST-tag; also called mouse FcγRII
T2 sequence (receptor extracellular region, looked up): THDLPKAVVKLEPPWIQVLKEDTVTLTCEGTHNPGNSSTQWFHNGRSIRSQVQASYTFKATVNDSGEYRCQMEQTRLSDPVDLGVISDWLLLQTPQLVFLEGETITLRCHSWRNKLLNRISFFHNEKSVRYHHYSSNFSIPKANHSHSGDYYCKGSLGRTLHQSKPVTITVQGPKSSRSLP

T3: human FcγRIIb receptor protein (R&D Systems) (human, UniProt P31994 46-217)
T3 construct: Bought protein injected over captured antibody in Biacore; also called CD32b
T3 sequence (looked up): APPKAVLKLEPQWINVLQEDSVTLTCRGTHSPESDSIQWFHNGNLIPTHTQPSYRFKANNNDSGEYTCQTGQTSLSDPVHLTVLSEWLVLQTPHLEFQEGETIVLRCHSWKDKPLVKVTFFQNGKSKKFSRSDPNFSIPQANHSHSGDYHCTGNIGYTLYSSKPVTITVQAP

T4: human FcγRIIb on cells (transfected HEK293T cells; primary human B cells) (human, UniProt P31994 43-310)
T4 construct: whole, on cells; also called CD32b
T4 sequence (looked up): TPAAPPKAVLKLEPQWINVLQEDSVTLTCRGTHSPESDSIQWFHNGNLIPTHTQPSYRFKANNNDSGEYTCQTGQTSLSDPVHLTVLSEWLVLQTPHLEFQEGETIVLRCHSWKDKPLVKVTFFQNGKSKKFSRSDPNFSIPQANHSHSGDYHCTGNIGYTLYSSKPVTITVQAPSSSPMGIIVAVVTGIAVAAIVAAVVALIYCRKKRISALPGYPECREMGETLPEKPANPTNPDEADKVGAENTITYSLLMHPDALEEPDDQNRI

T5: mFcγRIV
T5 construct: also called mouse FcγRIV; not shown: C-terminal His and GST tags (named only on our card)
T5 chain: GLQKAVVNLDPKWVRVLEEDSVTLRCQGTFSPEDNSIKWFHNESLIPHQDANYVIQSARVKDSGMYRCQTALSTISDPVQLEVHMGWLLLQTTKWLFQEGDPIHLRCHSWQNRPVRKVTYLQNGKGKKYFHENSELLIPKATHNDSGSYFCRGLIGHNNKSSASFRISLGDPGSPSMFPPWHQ

T6: human FcγRIIa (131R), His- and GST-tagged (human, UniProt P12318 34-217)
T6 construct: Expressed in HEK293T cells, purified by nickel chromatography; also called R131 FcγRIIa; not shown: 6xHis and GST tags of the pTT5 vector
T6 sequence (looked up): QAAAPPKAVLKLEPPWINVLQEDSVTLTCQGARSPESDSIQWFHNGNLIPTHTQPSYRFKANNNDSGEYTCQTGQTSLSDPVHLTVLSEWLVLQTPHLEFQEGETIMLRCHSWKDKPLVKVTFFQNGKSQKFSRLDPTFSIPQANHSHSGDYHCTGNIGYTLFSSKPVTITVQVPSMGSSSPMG

T7: human FcγRIIa (131H), His- and GST-tagged (human, UniProt P12318 34-217)
T7 construct: also called H131 FcγRIIa; HIIa; not shown: 6xHis and GST tags of the pTT5 vector
T7 sequence (looked up): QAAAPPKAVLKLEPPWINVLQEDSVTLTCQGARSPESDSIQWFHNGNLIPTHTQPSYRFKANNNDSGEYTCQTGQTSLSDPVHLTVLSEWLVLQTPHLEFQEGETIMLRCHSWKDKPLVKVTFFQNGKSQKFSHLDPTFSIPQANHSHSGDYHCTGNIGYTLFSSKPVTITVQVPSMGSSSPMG


Experiments:
cynoFcγRIIb [1] = target: T1, cynoFcγRIIb; assay: SPR, Kd
Experimental: (§1) Variants were screened for receptor affinity using Biacore™ technology, also referred to as Biacore herein, a surface plasmon resonance (SPR) based technology for studying biomolecular interactions in real time. SPR measurements were performed using a Biacore 3000 instrument (Biacore, Piscataway, N.J.). A protein A/G (Pierce Biotechnology) CM5 biosensor chip (Biacore) was generated using a standard primary amine coupling protocol. All measurements were performed using HBS-EP buffer (10 mM HEPES pH 7.4, 0.15 M NaCl, 3 mM EDTA, 0.005% vol/vol surfactant P20, Biacore). Antibodies at 20 nM or 50 nM in HBS-EP buffer were immobilized on the protein A/G surface and FcγRs were injected. After each cycle, the surface was regenerated by injecting glycine buffer (10 mM, pH 1.5). Data were processed by zeroing time and response before the injection of FcγR and by subtracting appropriate nonspecific signals (response of reference channel and injection of running buffer). Kinetic analyses were performed by global fitting of binding data with a 1:1 Langmuir binding model using BIAevaluation software (Biacore).
(§2) Variant antibodies were tested for their affinity to mouse or cynologous monkey FcγRs using Biacore SPR as described above. Specifically, antibodies were first immobilized on a protein A/G chip to high density, and then followed by injections of the extracellular domain of the mouse or cynologous monkey FcγR of interest. Both association and dissociation phases were tracked in real time using the Biacore technology.

mFcγRIIb [2] = target: T2, mFcγRIIb; assay: SPR, Kd
Experimental: as §1, §2

[3] = target: T3, human FcγRIIb receptor protein (R&D …); assay: SPR
[4] = target: T4, human FcγRIIb on cells (transfected …); assay: flow cytometry on FcγRIIb-transfected 293T cells [middle left panel]
Experimental: In order to validate the Biacore data and evaluate receptor binding of the variants on the cell surface, binding of select antibodies to cells expressing FcγRIIb was measured. […] HEK293T cells in DMEM with 10% FBS were transfected with human FcγRIIb cDNA in pCMV6 expression vector (Origene Technologies, Rockville, Md.), cultured for 3 days, harvested, washed twice in PBS, resuspended in PBS with 0.1% BSA (PBS/BSA), and aliquoted at 2×10^5 cells per well into 96-well microtiter plates. Fc variant antibodies were serially diluted in PBS/BSA then added to the cells and incubated with mixing for 1 h at room temperature. After extensive washing with PBS/BSA, phycoerythrin (PE)-labeled anti-human-Fab-specific goat F(ab′)2 fragment was added for detection. Cells were incubated for 30 min at room temperature, washed, and resuspended in PBS/BSA. Binding was evaluated using a FACSCanto II flow cytometer (BD Biosciences, San Jose, Calif.), and the mean fluorescence intensity (MFI) was plotted as a function of antibody concentration using Graph Pad Prism software (GraphPad Software, San Diego, Calif.) from which half-maximal binding (EC50) values were determined by sigmoidal dose response modeling.

mFcγRIV = target: T5, mFcγRIV; assay: SPR
cynoFcγRIIb [5] = target: T1, cynoFcγRIIb; assay: SPR
mFcγRIIb [6] = target: T2, mFcγRIIb; assay: SPR
cynoFcγRIIIa = target: T8, cynoFcγRIIIa (Macaca fascicularis, UniProt Q8SPW2); assay: SPR
T8 construct: extracellular region, C-terminal His- and GST-tag; also called cynomolgus monkey FcγRIIIa
T8 sequence (Q8SPW2 17-208): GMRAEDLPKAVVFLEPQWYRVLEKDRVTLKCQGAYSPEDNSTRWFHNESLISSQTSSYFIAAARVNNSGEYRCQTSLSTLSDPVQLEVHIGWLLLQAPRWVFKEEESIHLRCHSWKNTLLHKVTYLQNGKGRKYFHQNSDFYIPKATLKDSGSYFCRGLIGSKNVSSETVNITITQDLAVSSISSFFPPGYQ

[7] = target: T9, human FcγRIIIa (158V), His- and GST-tagged (human, UniProt P08637 17-208); assay: SPR
T9 construct: also called V158 FcγRIIIa; VIIIa; not shown: 6xHis and GST tags of the pTT5 vector
T9 sequence (P08637 17-208 F176V): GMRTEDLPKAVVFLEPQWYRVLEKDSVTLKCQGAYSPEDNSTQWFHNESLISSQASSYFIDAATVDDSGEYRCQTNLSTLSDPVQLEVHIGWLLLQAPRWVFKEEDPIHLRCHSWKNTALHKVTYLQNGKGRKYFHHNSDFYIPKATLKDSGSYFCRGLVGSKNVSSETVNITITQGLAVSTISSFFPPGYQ

[8] = target: T10, human FcγRI receptor protein (R&D Systems) (human, UniProt P12314 16-288); assay: SPR
T10 construct: also called soluble FcγRI; solFcγRI
T10 sequence (P12314 16-288 limits assumed): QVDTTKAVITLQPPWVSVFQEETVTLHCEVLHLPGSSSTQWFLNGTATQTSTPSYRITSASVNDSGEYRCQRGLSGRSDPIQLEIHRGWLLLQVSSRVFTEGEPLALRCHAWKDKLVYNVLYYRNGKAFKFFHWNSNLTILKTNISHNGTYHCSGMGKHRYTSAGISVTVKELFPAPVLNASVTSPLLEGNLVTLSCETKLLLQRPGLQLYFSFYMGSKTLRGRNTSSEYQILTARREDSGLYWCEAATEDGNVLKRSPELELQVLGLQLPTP

[9] = target: T6, human FcγRIIa (131R), His- and …; assay: SPR
[10] = target: T7, human FcγRIIa (131H), His- and …; assay: SPR
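For Fold vs WT IgG1 (off-rate) in this document: fold improvement over WT IgG1 so higher means slower dissociation than WT.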

binding result (cynoFcγRIIb [1]) | binding result (mFcγRIIb [2]) | binding result [3] | EC50 (read off the curve) [4] | Fold vs WT IgG1 (off-rate) (mFcγRIV) | Fold vs WT IgG1 (off-rate) (cynoFcγRIIb [5]) | Fold vs WT IgG1 (off-rate) (mFcγRIIb [6]) | Fold vs WT IgG1 (off-rate) (cynoFcγRIIIa) | Fold vs WT IgG1 [7] | Kd [7] | Fold vs WT IgG1 [3] | Kd [3] | Fold vs WT IgG1 [8] | Kd [8] | Fold vs WT IgG1 [9] | Kd [9] | Fold vs WT IgG1 [10] | Kd [10] | Binder
no binding | no binding | no binding |  |  |  |  |  |  |  |  |  |  |  |  |  |  |  | A327L (antibody, human IgG1, kappa, HuAM4G7 anti-CD19 IgG1 (m1) with this Fc substitution, EU index; copies: 2 + 2) heavy: not shown light: DIVMTQSPATLSLSPGERATLSCRSSKSLQNVNGNTYLYWFQQKPGQSPQLLIYRMSNLNSGVPDRFSGSGSGTEFTLTISSLEPEDFAVYYCMQHLEYPITFGAGTKLEIKRTVAAPSVFIFPPSDEQLKSGTASVVCLLNNFYPREAKVQWKVDNALQSGNSQESVTEQDSKDSTYSLSSTLTLSKADYEKHKVYACEVTHQGLSSPVTKSFNRGEC
 |  |  | ~10 ng/mL | 1.04 fold | 1.03 fold | 2.8 fold | 0.465 fold | 0.00894 fold | 21400 nM | 30.9 fold | 47.5 nM | 2.3 fold | 0.143 nM | 29.3 fold | 29.3 nM | 2.66 fold | 243 nM | S267E/A327E (antibody, human IgG1, kappa, HuAM4G7 anti-CD19 IgG1 (m1) with these Fc substitutions, EU index; copies: 2 + 2) heavy: not shown light: DIVMTQSPATLSLSPGERATLSCRSSKSLQNVNGNTYLYWFQQKPGQSPQLLIYRMSNLNSGVPDRFSGSGSGTEFTLTISSLEPEDFAVYYCMQHLEYPITFGAGTKLEIKRTVAAPSVFIFPPSDEQLKSGTASVVCLLNNFYPREAKVQWKVDNALQSGNSQESVTEQDSKDSTYSLSSTLTLSKADYEKHKVYACEVTHQGLSSPVTKSFNRGEC
 |  |  | ~10 ng/mL |  |  |  |  | 3.15 fold | 60.8 nM | 40.6 fold | 36.1 nM | 3.52 fold | 0.0935 nM | 41.7 fold | 20.6 nM | 0.765 fold | 845 nM | anti-CD19 antibody HuAM4G7 IgG1 S267E/H268E (antibody, Positions in EU numbering; copies: 2 + 2) heavy: not shown light: DIVMTQSPATLSLSPGERATLSCRSSKSLQNVNGNTYLYWFQQKPGQSPQLLIYRMSNLNSGVPDRFSGSGSGTEFTLTISSLEPEDFAVYYCMQHLEYPITFGAGTKLEIKRTVAAPSVFIFPPSDEQLKSGTASVVCLLNNFYPREAKVQWKVDNALQSGNSQESVTEQDSKDSTYSLSSTLTLSKADYEKHKVYACEVTHQGLSSPVTKSFNRGEC
